Measurements as given in publication PMC8956665, “Structural and molecular rationale for the diversification of resistance mediated by the Antibiotic_NAT family” (Communications Biology, 2022).
Read-outs that look alike come from different tables or passages of the source.

How the values were obtained:
AAC(3)-IVa [1] = target: AAC(3)-IVa
AAC(3)-IVa [2] = assay: crystal structure
meta-AAC0038 [3] = conditions: ternary complex with CoA; 10 mM apramycin, 20% PEG 3350, 50 mM ADA pH 7; catalytically inactive mutant; active site cleft
meta-AAC0038 [4] = conditions: binary complex; catalytically inactive mutant

meta-AAC0038, sequence (A0A059X981 entry or part of it H168A): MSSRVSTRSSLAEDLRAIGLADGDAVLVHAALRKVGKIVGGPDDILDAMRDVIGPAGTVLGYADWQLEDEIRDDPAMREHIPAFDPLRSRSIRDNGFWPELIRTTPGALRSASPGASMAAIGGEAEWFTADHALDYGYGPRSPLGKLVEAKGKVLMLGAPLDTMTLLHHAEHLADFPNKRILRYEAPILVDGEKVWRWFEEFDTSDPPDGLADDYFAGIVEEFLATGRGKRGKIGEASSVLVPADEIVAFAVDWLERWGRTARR

Compound AAC(3)-IVa (enzyme) has a stoichiometry N (AAC(3)-IVa [1]) of 2 and a stoichiometry N (AAC(3)-IVa [2]) of 2.
For CN[C@@H]1[C@@H](O[C@H]2O[C@H](CO)[C@@H](N)[C@H](O)[C@H]2O)O[C@H]2C[C@@H](N)[C@@H](O[C@H]3[C@H](O)[C@@H](O)[C@H](N)C[C@@H]3N)O[C@@H]2[C@@H]1O [APR, apramycin], the “X-ray crystal structure, co-crystallization” value (meta-AAC0038 [3]) was “crystal structures of the ternary meta-AAC0038^H168A•apramycin•CoA”.
CC(=O)SCCNC(=O)CCNC(=O)[C@H](O)C(C)(C)COP(=O)(O)OP(=O)(O)OC[C@H]1O[C@@H](n2cnc3c(N)ncnc32)[C@H](O)[C@@H]1OP(=O)(O)O [AcCoA, acetyl-CoA] was tested, and the X-ray crystal structure (meta-AAC0038 [4]) was “the binary meta-AAC0038^H168A•acetyl-CoA complexes”.
